Columns and labels:
[1] = molecular target: NtCDC48, endogenous (Nicotiana tabacum (endogenous in cv. Xanthi cell suspensions)); test: SDS-PAGE and immunoblot
[2] = molecular target: CFP-NtCDC48 (Nicotiana tabacum); test: FRET or BRET
[3] = molecular target: cytosolic ascorbate peroxidase (cAPX), endogenous (Nicotiana tabacum (endogenous in cv. Xanthi cell suspensions)); test: native gel or EMSA
[4] = molecular target: His-NtCDC48 recombinant protein (Nicotiana tabacum); test: SDS-PAGE and immunoblot

In the case of NtCDC48, endogenous (natural protein), the stoichiometry N [1] was 6.
cAPX-YFP (enzyme) showed a CFP donor fluorescence lifetime with the acceptor (2.97 ns for the donor alone) [2] of 2.41 ns.
“cytosolic ascorbate peroxidase (cAPX), endogenous (enzyme)” gave a stoichiometry N [3] of 2.
“His-NtCDC48 recombinant protein (natural protein)” gave a stoichiometry N [4] of 6.
